Data: publication PMC12552534

Assays:
[1] = target: C terminally LgBiT-fused C protein (Sendai virus); assay: split reporter (BiFC, NanoBiT); NanoBiT; 293T cells co-transfected with LgBiT-fused C and SmBiT-fused STAT1, STAT3 or SV40 large T antigen (negative control), 24 h; luciferase activity measured in NP-40 lysates, normalised to GAPDH; control set to 1
[2] = target: N terminally histidine-tagged Y3 (C-terminal region of Sendai virus C protein) (Sendai virus); assay: native MS; Y3 (50 μM) complexed with STAT3ND (50 μM), buffer-exchanged to 450 mM ammonium acetate pH 8.0, nano-ESI, native condition
[3] = target: N terminally histidine-tagged N-terminal domain of STAT3 (STAT3ND) (human) (UniProt P40763); assay: as above
[4] = target: N terminally histidine-tagged N-terminal domain of STAT3 (STAT3ND) (human) (UniProt P40763); assay: SEC; Y3 and STAT3ND alone or mixed equimolar (100 μM in text and methods, 50 μM in the legend), preincubated 10 min on ice; Superdex 75 Increase 10/300 GL, 20 mM Tris-HCl pH 8.0, 100 mM NaCl, 4 °C, 0.5 ml/min; fractions on SDS-PAGE

C terminally LgBiT-fused C protein (Sendai virus), sequence (P04862 1-204): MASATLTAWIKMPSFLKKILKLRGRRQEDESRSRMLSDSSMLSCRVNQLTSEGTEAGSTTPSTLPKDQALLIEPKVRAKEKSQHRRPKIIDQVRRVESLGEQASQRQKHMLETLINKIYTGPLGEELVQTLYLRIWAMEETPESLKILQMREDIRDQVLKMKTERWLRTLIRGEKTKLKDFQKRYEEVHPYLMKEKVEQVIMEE

In the case of “N terminally SmBiT-fused STAT3 (from UniProt P40763 1-770) (natural protein)”, the luciferase activity, fold lower than with SmBiT-fused STAT1 [1] was 4.8 fold and the luciferase activity, fold over the SmBiT-fused SV40 large T antigen negative control [1] was 1.3 fold.

“N terminally histidine-tagged Y3 (C-terminal region of Sendai virus C protein) (domain or fragment)” was tested, and the stoichiometry N [2] was 2 and the stoichiometry N (Y3 per STAT3ND (1:2)) [3] was 0.5.

Work on “N terminally histidine-tagged N-terminal domain of STAT3 (STAT3ND) (from UniProt P40763 3-138) (domain or fragment)” yielded a stoichiometry N [4] of 2.
